According to PMC3058729:

Biological target: GST fusion protein of the cytoplasmic region of DSC2a A897fsX900 (aa 716–899) (human) (UniProt Q02487)
Assay: pull-down

Sequence of UniProt Q02487 (Q02487 716-899): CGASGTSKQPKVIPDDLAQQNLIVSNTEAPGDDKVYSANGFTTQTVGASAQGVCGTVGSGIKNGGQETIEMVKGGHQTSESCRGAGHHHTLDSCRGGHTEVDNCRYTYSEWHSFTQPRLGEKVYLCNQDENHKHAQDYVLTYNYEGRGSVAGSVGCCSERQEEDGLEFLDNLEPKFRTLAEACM

B1: plakoglobin (PG), endogenous in adult rat heart lysate (natural protein)
chain: MEVMNLIEQPIKVTEWQQTYTYDSGIHSGVNTCVPSVSSKGLLDEDDTCGRQYTLKKTTTYTQGVPQSQGDLEYQMSTTARAKRVREAMCPGVSGEDSSLLLATQVEGQTTNLQRLAEPSQLLKSAIVHLINYQDDAELATRALPELTKLLNDEDPVVVTKAAMIVNQLSKKEASRRALMGSPQLVAAVVRTMQNTSDLDTARCTTSILHNLSHHREGLLAIFKSGGIPALVRMLSSPVESVLFYAITTLHNLLLYQEGAKMAVRLADGLQKMVPLLNKNNPKFLAITTDCLQLLAYGNQESKLIILANGGPQGLVQIMRNYSYEKLLWTTSRVLKVLSVCPSNKPAIVEAGGMQALGKHLTSNSPRLVQNCLWTLRNLSDVATKQEGLENVLKILVNQLSVDDVNVLTCATGTLSNLTCNNSKNKTLVTQNSGVEALIHAILRAGDKDDITEPAVCALRHLTSRHPEAEMAQNSVRLNYGIPAIVKLLNQPNQWPLVKATIGLIRNLALCPANHAPLQEAAVIPRLVQLLVKAHQDAQRHVAAGTQQPYTDGVRMEEIVEGCTGALHILARDPMNRMEIFRLNTIPLFVQLLYSSVENIQRVAAGVLCELAQDKEAADAIDAEGASAPLMELLHSRNEGTATYAAAVLFRISEDKNPDYRKRVSVELTNSLFKHDPAAWEAAQSMIPINEPYADDMDATYRPMYSSDVPLDPLDMHMDMDGDYPMDTYSDGLRPPYPAADHMLA
For B1, the reduction of binding against DSC2a WT (densitometry) was 50%.
